Measured values as given in article PMC314469, “Protein Interaction Networks by Proteome Peptide Scanning” (PLoS Biology, 2004).

What was measured:
[1] = target: T1, amphyphisin SH3 (AMPH_HUMAN), P49418; test: SPOT array
T1 chain: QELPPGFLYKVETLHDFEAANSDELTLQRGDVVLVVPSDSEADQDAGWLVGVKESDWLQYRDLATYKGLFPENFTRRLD

[2] = target: endophilin SH3 (SH3G2_HUMAN), Q99962; test: SPOT array

Binder | normalised SPOT signal, Boehringer light units (BLU); mean over the file's lines of this peptide [1] | normalised SPOT signal, Boehringer light units (BLU); mean over the file's lines of this peptide [2]
LEQAFRRPNVNLTS [Q8WVX9 331-344] | 43.1 | 42.5
LFQPPRRPGLGTVG [Q9HCK5 75-88] | 1500 | 1840
LGDSLRRPQLRLWS [P41440 258-271] | 14.9 | 6
LGGSPRRPSGRKGS [Q92729 834-847] | 34.3 | 122
LDPLPRRPPAGRRG [BAC04326 52-66] | 1100 | 4540
LEIPPPKPPAPEMN [Q96F28 217-231] | 31.6 | 43.4
APLLPPRPPPLPPV [Q9NR05 56-70] | 1400 | 4020
LEIPPPKPPAPLLH [Q8WXI9 364-378] | 36.7 | 712
LGHPPAKPPLPPGP [Q96QH2 497-511] | 64.4 | 264
APEPPPRPPPALSP [Q96NP9 14-28] | 962 | 2330
APFLPPKPPPPIIV [Q9BYZ6 230-244] | 35.1 | 1320
LGLRLSRPYRLAAG [O14927 499-512] | 1650 | 315
LEESPWKPPTYLFS [Q9P239 478-492] | 39.8 | 53.3
LFPPLFRPQRPHSA [Q9ULW2 164-177] | 5720 | 10200
LDSALLRPGRIDRK [P47210 301-314] | 1620 | 117
LGLELGRPVRFLYE [P13942 112-125] | 218 | 245
LETSLKRPKRPLFN [Q96RW7 67-80] | 1410 | 93.1
LFIIPPKPPGRPQG [P81489 12-26] | 459 | 538
LFNLIKRPDDEQRQ [Q9P260 301-314] | 16.2 | 34
LGKIPLKPPPLELL [O15504 407-421] | 72.5 | 61.2
LDPALMRPGRFHRQ [O43931 13-26] | 2880 | 311

Binder | normalised SPOT signal, Boehringer light units (BLU); mean over the file's lines of this peptide [1] | normalised SPOT signal, Boehringer light units (BLU); mean over the file's lines of this peptide [2]
LGLSFRRPNVITLL [Q9ULA1 146-159] | 38.4 | 300
LFFELRRPPQHGVL [Q9H6N9 50-63] | 12.7 | 168
LDPALMRPGRLDRK [P35998 327-340] | 4700 | 346
LDPALLRPGRFDRQ [Q9Y4W6 459-472] | 806 | 139
APPELRRPSHLHTS [Q8WU02 149-162] | 33.1 | 145
LDSILRRPYVTSQP [Q9Y5K1 339-352] | 10.6 | 54.4
LEYVLFRPNRRYNQ [Q15018 147-160] | 451 | 54.6
LDPALRRPGRFDRE [Q9HA41 350-363] | 666 | 159
LEDSPKRPKEAENP [P51858 162-175] | 12.6 | 2.6
LGPVPHRPPFEPGS [P54259 848-862] | 65.2 | 41.8
LDPALRRPSQKVYR [O15047 30-43] | 37.6 | 108
LGKVIRRPPLTEKL [Q9NRD6 13-26] | 4.7 | 277
LELALKRPRPPVLS [Q9ULJ3 268-281] | 29.6 | 129
LGLLFRRPEALQVG [Q13290 172-185] | 12.2 | 61.1
LGASPAKPPSPGAP [Q8WXD9 1320-1334] | 62 | 102
LDPALLRPGRLDRK [P43686 317-330] | 2030 | 123
LEQLLLRPERPGDT [O43157 127-140] | 68.8 | 147
LGLPPGKPPSSSPL [Q9H7S9 349-363] | 23.4 | 45.5
LGEVPRRPASRGVP [Q969P6 16-29] | 22.2 | 1050
LERRLKRPRTQGVV [Q9H9E5 251-264] | 34.4 | 20
LEFPPRRPFARRRM [O00513 852-865] | 241 | 3050
